The source of these data is patent US20110263454A1, “Methods of Identifying Functional Characteristics of Promoters, Transcription Modifying Proteins and Transcription Modulating Agents” (Salk Institute for Biological Studies, priority 2008, published 2011).

Assay [1] relates to hCYP3A4 promoter. The assay can be described thus: NHR-promoter luciferase screen, hCYP3A4 promoter. The assay is classed as cell-based, human. In short, it runs like this: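 Luciferase reporter read-out after co-expression in CV-1 cells of V5H6-tagged receptor (alone or with RXR), the promoter construct and LacZ. Values are luciferase/LacZ relative to a control lacking NHR or ligand; orphan receptors tested ligand-free.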

In assay [2] the test system is mLeptin promoter. The experiment in a line: NHR-promoter luciferase screen, mLeptin promoter. The format is cell-based, mouse. In short, it runs like this: (§1)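 CV-1 cells were co-transfected with 50 ng NHR (homodimer or NHR/RXR heterodimer), 100 ng promoter-luciferase construct and 50 ng LacZ. Luciferase was normalized to LacZ and to a no-NHR/no-ligand control.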
For assay [3], the system named is mPOMC promoter. The experiment in a line: NHR-promoter luciferase screen, mPOMC promoter. The format is cell-based, mouse. The essentials:
as §1

Assay [4] deals with mUCP2 promoter. The assay can be described thus: NHR-promoter luciferase screen, mUCP2 promoter. The format is cell-based, mouse. In short, it runs like this: as §1
Assay [5] has as its system hIRF7 promoter. The experiment in a line: NHR-promoter luciferase screen, hIRF7 promoter. The assay is classed as cell-based, human. The essentials:
as §1

Assay [6] concerns mCAR promoter. The assay can be described thus: NHR-promoter luciferase screen, mCAR promoter. The format is cell-based, mouse. In short, it runs like this: as §1
Where [7] appears, read: CYP3A4 promoter, HR/ligand component.
The mark [8] stands for this setting: transcription factor +/- ligand, control = 1.00.
[9] abbreviates: Table 6d, luciferase activity relative to control (control = 1.00).
Setting [10] is: mCAR promoter, HR/ligand component.

B1: CTF3: COUP-TF3 (NR2F6), cDNA driver (protein, UniProt P10588 1-404, looked up)
Nuclear receptor subfamily 2 …: MAMVTGGWGGPGGDTNGVDKAGGYPRAAEDDSASPPGAASDAEPGDEERPGLQVDCVVCGDKSSGKHYGVFTCEGCKSFFKRSIRRNLSYTCRSNRDCQIDQHHRNQCQYCRLKKCFRVGMRKEAVQRGRIPHSLPGAVAASSGSPPGSALAAVASGGDLFPGQPVSELIAQLLRAEPYPAAAGRFGAGGGAAGAVLGIDNVCELAARLLFSTVEWARHAPFFPELPVADQVALLRLSWSELFVLNAAQAALPLHTAPLLAAAGLHAAPMAAERAVAFMDQVRAFQEQVDKLGRLQVDSAEYGCLKAIALFTPDACGLSDPAHVESLQEKAQVALTEYVRAQYPSQPQRFGRLLLRLPALRAVPASLISQLFFMRLVGKTPIETLIRDMLLSGSTFNWPYGSGQ
With B1, the “Luc. act., normalized to lacZ” value in assay [1] (setting [7]) came out at 6.1; in assay [2] (Table 7, mLeptin), 2.7; in assay [3] (mPOMC promoter, HR component with or without ligand), 51.8; in assay [4] (mUCP2 promoter reporter, co-transfected HR, with or without its ligand), 54.4; in assay [5] (IRF7 promoter reporter, hormone receptor (HR) without or with its ligand), 25.5; in assay [6] (setting [10]), 11.2. Further, the “Normalized Luc. act., normalized to control” value in assay [1] (setting [7]) came out at 1.4; in assay [2] (Table 7, mLeptin) it was 0.9; in assay [3] (mPOMC promoter, HR component with or without ligand, relative to control) it was 0.8; in assay [4] (mUCP2 promoter reporter, co-transfected HR, with or without its ligand, relative to control), 0.5; in assay [5] (IRF7 promoter reporter, HR without or with its ligand, relative to control), 1.0; in assay [6] (setting [10]), 0.3. For the same molecule, the “hCYP3A4 promoter reporter activity” value in assay [1] (setting [8]) was found to be 1.37. Moreover, in assay [2] (setting [9]), the “Results of assays of transcription factor (+/- ligand) with mLeptin” value was 0.92. Also, the “Results of assays of transcription factor (+/- ligand) with mPOMC” value in assay [3] (setting [9]) was determined as 0.75. Besides, the “luciferase activity normalized to lacZ activity and to a control, mUCP2” value in assay [4] (mUCP2 promoter-luciferase, CV-1 cells, NHR +/- ligand, control = 1.00) is listed as 0.49. In addition, the “hIRF7 promoter reporter activity” value in assay [5] (setting [8]) is recorded as 0.97. The “luciferase activity normalized to lacZ activity and to a control, mCAR” value in assay [6] (mCAR promoter-luciferase, CV-1 cells, NHR +/- ligand, control = 1.00) worked out at 0.29.
